The experiment deals with T1, LysGH15 SH3b domain (residues 368–495) (staphylococcal phage GH15, 15N (and/or 13C) labelled for NMR; N-terminal SNA tag remnant omitted (PDB 2MK5 entity residues 4-131 = 368-495)).
T1 chain: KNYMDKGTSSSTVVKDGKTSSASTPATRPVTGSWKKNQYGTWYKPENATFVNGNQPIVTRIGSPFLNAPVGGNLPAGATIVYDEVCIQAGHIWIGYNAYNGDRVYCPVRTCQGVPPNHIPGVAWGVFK
As to the kind of experiment: NMR titration; 1H-15N HSQC spectra of 15N-labelled SH3b on addition of the peptide (100 mM stock in the buffer of the SH3b sample); 298 K; KD from a fit of the chemical shift perturbations; fast exchange. The following applies: both partners purified.

B1: peptide “AGGGGG” (peptide)
peptide: AGGGGG
notes: synthetic peptide used as previously reported for the SH3b domain of ALE-1; Not a stretch of a named natural protein; also called the peptide; source: synthetic peptide (Sangon Biotech (Shanghai) Co., Ltd.)
One may read the Kd as a measure of binding affinity in units of concentration. As to B1, the Kd is roughly 3000 µM.
